Earlier results on 15 molecules are cited in patent US20260217837A1, “FGFR3 BINDING MOLECULES AND METHODS OF USE THEREOF” (Regeneron Pharmaceuticals, Inc., priority 2023, published 2026).

Where two headings read alike, the source gives them in different places.

The data set deals with FGFR3.
[1] abbreviates: Exemplary FGFR3 D3 binding sequences, antibodies of cited PCT publications.
The mark [2] stands for this setting: Table T-1, exemplary FGFR3 parental antibodies of cited publications.

B1: MS-Pro-11: anti-FGFR3 Ig-like domain 3 antibody of WO 2002/102972 A2; SEQ ID NO: 30/31 (antibody, V domains shown)
VH: QVQLVQSGAEVKKPGASVKVSCKASGYTFTSYYMHWVRQAPGQGLEWMGWINPNSGGTNYAQKFQGRVTMTRDTSISTAYMELSSLRSEDTAVYYCARYYGSSLYHYVFGGFIDYWGQGTLVTVSS
VL: DIALTQPASVSGSPGQSITISCTGTSSDVGGYNYVSYQQHPGKAPKLMIYDVSNRPSGVSNRFSGSKSGNTASLTISGLQAEDEADYYCQSHHFYEVFGGGTKLTVLGQ
Turning to B1, the Activity result reads like this: under setting [1], “Antagonistic”; under setting [2], “Antagonistic”.

B2: KE94: anti-FGFR3 IIIb and IIIc antibody of WO 2022/040560 A1; SEQ ID NO: 82/83 (antibody, V domains shown)
VH: QVQLQQSGAELVRPGASVTLSCKASGSTFTDFEIHWVKQTPVHGLEWIGAIDPETGGTAYNQKFKGKAILTAVKSSSTAYMGLRSLTSEDSAVYYCTRNYDGYSRTMDYWGQGTSVTVSS
VL: NIMMTQSPSSLAVSAGEKVTMSCKSSQSVLYSSNQKNYLAWYQQKPGQSPKLLIYWASTRESGVPDRFTGSGSGTDFSLSISSVQTEDLAVYYCHQYLSSYTFGGGTRLEMK
Take B2: the Activity result by setting is: under setting [1], “Antagonistic”; under setting [2], “Antagonistic”.

B3: 184.6.1.N54S: anti-FGFR3 Ig-like domain 3 antibody of WO 2010/111367 A1; SEQ ID NO: 63/64 (antibody, V domains shown)
VH: EVQLVESGGGLVQPGGSLRLSCAASGFTFTSTGISWVRQAPGKGLEWVGRIYPTSGSTNYADSVKGRFTISADTSKNTAYLQMNSLRAEDTAVYYCARARTYGIYDLYVDYTEYVMDYWGQGTLV
VL: DIQMTQSPSSLSASVGDRVTITCRASQDVDTSLAWYQQKPGKAPKLLIYSASFLYSGVPSRFSGSGSGTDFTLTISSLQPEDFATYYCQQSTGHPQTFGQGTKVEIKR
On to B3, for which the Activity entry reads like this: under setting [1], “Antagonistic”; under setting [2], “Antagonistic”.

B4: B-701: anti-FGFR3 antibody of WO 2016/134234 A1; SEQ ID NO: 70/71 (antibody, V domains shown)
VH: EVQLVESGGGLVQPGGSLRLSCAASGFTFTSTGISWVRQAPGKGLEWVGRIYPTSGSTNYADSVKGRFTISADTSKNTAYLQMNSLRAEDTAVYYCARTYGIYDLYVDYTEYVMDYWGQGTLV
VL: DIQMTQSPSSLSASVGDRVTITCRASQDVDTSLAWYKQKPGKAPKLLIYSASFLYSGVPSRFSGSGSGTDFTLTISSLQPEDFATYYCQQSTGHPQTFGQGTKVEIKR
B4: the Activity entry under setting [2] was “Antagonistic”.

B5: 184.6.62: anti-FGFR3 Ig-like domain 3 antibody of WO 2010/111367 A1; SEQ ID NO: 67/68 (antibody, V domains shown)
VH: EVQLVESGGGLVQPGGSLRLSCAASGFTFSTTGISWVRQAPGKGLEWVARIYPLYGSTHYADSVKGRFTISADTSKNTAYLQMNSLRAEDTAVYYCARARTYGIYDLYVDYTEYVMDYWGQGTLV
VL: DIQMTQSPSSLSASVGDRVTITCRASQDVSTAVAWYQQKPGKAPKLLIYSASFLYSGVPSRFSGSGSGTDFTLTISSLQPEDFATYYCQQTYTTSLTFGQGTKVEIKR
With B5, the Activity result reads like this: under setting [1], “Antagonistic”; under setting [2], “Antagonistic”.

B6: 184.6.58: anti-FGFR3 Ig-like domain 3 antibody of WO 2010/111367 A1 (aka R3Mab); SEQ ID NO: 65/66 (antibody, V domains shown)
VH: EVQLVESGGGLVQPGGSLRLSCAASGFTFTSTGISWVRQAPGKGLEWVARIYPTNGSTNYADSVKGRFTISADTSKNTAYLQMNSLRAEDTAVYYCARARTYGIYDLYVDYTEYVMDYWGQGTLV
VL: DIQMTQSPSSLSASVGDRVTITCRASQDVDISLAWYQQKPGKAPKLLIYSASFLYSGVPSRFSGSGSGTDFTLTISSLQPEDFATYYCQQGAGNPYTFGQGTKVEIKR
Turning to B6, the Activity result reads like this: under setting [1], “Antagonistic”; under setting [2], “Antagonistic”.

B7: 184.6.1.NS D30E: anti-FGFR3 Ig-like domain 3 antibody of WO 2010/111367 A1; SEQ ID NO: 63/69 (antibody, V domains shown)
VH: EVQLVESGGGLVQPGGSLRLSCAASGFTFTSTGISWVRQAPGKGLEWVGRIYPTSGSTNYADSVKGRFTISADTSKNTAYLQMNSLRAEDTAVYYCARARTYGIYDLYVDYTEYVMDYWGQGTLV
VL: DIQMTQSPSSLSASVGDRVTITCRASQDVETSLAWYQQKPGKAPKLLIYSASFLYSGVPSRFSGSGSGTDFTLTISSLQPEDFATYYCQQSTGHPQTFGQGTKVEIKR
On to B7, for which the Activity entry by setting is: under setting [1], “Antagonistic”; under setting [2], “Antagonistic”.

B8: FGA0002: anti-FGFR3 (S249C mutant) antibody of WO 2021/010326 A1; SEQ ID NO: 84/85 (antibody, V domains shown)
VH: QELVESGGGLVQPGGSLKLSCKASGIDFSSYGISWVRQAPGKGLEWIAYIVPGFGIRNYANSVKGRFTISSDNAQNTVFLQMTSLTASDTATYFCARVPQYASSSGYYLPFNLWGPGTLVTVSS
VL: ALVMTQTPSPVSAAVGGTVTINCQASEDIYYNLAWFQQKPGQPPKLLIYRASTLASGVPSRFSGSGSGTEFTLTISDVQCDDAATYYCLGVYTYISADGNAFGGGTEVVVK
Regarding B8, under setting [2], the Activity result was “Antagonistic”.

B9: KC18: anti-FGFR3 IIIb and IIIc antibody of WO 2022/040560 A1; SEQ ID NO: 72/73 (antibody, V domains shown)
VH: QVQLQQSGAELVRPGASVTLSCKASGDTFTDFEIHWVKQTPVHGLEWIGDIDPETGGTAYNQKFRGRAMLTADRSSSTAYMELRSLTSEDSAVYYCTRTYDGYPYAMDYWGQGTSVTVSS
VL: DIVMSQSPSSLAVSVGEKVTMSCKSSQSLLYSNNQKNYLAWYQQKPGQSPKLLIYWASTRESGVPDRFTGSGSGTDFTLTISSVKAEDLAVYYCQQYYSYRTFGGGTKLEIK
Regarding B9, the Activity result is, setting by setting: under setting [1], “Antagonistic”; under setting [2], “Antagonistic”.

B10: KE63: anti-FGFR3 IIIb and IIIc antibody of WO 2022/040560 A1; SEQ ID NO: 80/81 (antibody, V domains shown)
VH: QVQLQQSGAELVRPGASVTLSCKASGSTFSDFEIHWVKQTPVHGLEWIGGIDPETGGTAYNQKFKGKAILTADRSSSTAYMELRSLTSEDSAVYYCTRNYDGYSQTMDYWGQGTSVTVSS
VL: NIMMTQSPSSLAVSAGEKVTMSCKSSQSVLYSSNQKNYLAWYQQKPGQSPKLLIYWASTRESGVPDRFTGSGSGTDFTLTISSVQAEDLAVYYCHQYLSSYTFGGGTKLEMK
On to B10, for which the Activity result is, setting by setting: under setting [1], “Antagonistic”; under setting [2], “Antagonistic”.

B11: MS-Pro-59: anti-FGFR3 Ig-like domain 3 antibody of WO 2002/102972 A2; SEQ ID NO: 28/29 (antibody, V domains shown)
VH: QVQLQQSGPGLVKPSQTLSLTCAISGDSVSSNSAAWNWIRQSPGRGLEWLGRTYYRSKWYNDYAVSVKSRITINDTSKNQFSLQLNSVTPEDTAVYYCARSYYPDFDYWGQGTVTVSS
VL: DIELTQPPSVSVAPGQTARISCSGDALGDKYASWYQQKPGQAPVLVIYDDSDRPSGIPERFSGSNSGNTATLTISGTQAEDEADYYCQSYDGPDLWVFGGGTKLTVLGQ
Consider B11, for which the Activity entry under setting [1] was “Antagonistic” and the Activity result under setting [2] is “Antagonistic”.

B12: VH: SEQ ID NO: 7 of PCT Publication No: WO 2010/048026 A2: unnamed anti-FGFR3 Ig-like domain 2 antibody, VH SEQ ID NO: 7 / VL SEQ ID NO: 8 of WO 2010/048026 A2; SEQ ID NO: 61/62 (antibody, V domains shown)
VH: EVQLVQSGAEVKKPGASVKVSCKASGYMFTSYGISWVRQAPGQGLEWMGWVSTYNGDTNYAQKFQGRVTVTTDTSTSTAYMELRSLRSEDTAVYYCARVLGYYDSIDGYYYGMDVWGQGTTVTVSS
VL: QSVLTQPPSLSVAPGKTATFTCGGNNIGDKSVHWYRQKPGQAPVLVMYLDTERPSGIPERMSGSNFGNTATLTITRVEAEDEADYYCQVWDSGSDHVVFGGGTKLTVLG
For the molecule B12, under setting [2], the Activity result is given as “Antagonistic”.

B13: KE35: anti-FGFR3 IIIb and IIIc antibody of WO 2022/040560 A1; SEQ ID NO: 74/75 (antibody, V domains shown)
VH: EVQLQQSGPELVKPGASVKMSCKASGYTFTDYNMHWVKQSHGKSLEWIGYINPNNGGTRYNQKFKGKATLTVNKSSSTAYMELRSLTSEDSAVYYCARERDYDGAMDYWGQGTSVTVSS
VL: DIQMTQSPSSLSASLGGKVTITCKASQDINKFIAWYQHKPGKGPRLLIHYTSTLQPGIPSRFSGSGSGRDYSFSISNLEPEDIATYYCLQYDNLLWTFGGGTKLEIK
B13: the Activity entry is on record as “Antagonistic” under setting [1] and “Antagonistic” under setting [2].

B14: KE42: anti-FGFR3 IIIb and IIIc antibody of WO 2022/040560 A1; SEQ ID NO: 76/77 (antibody, V domains shown)
VH: EVQLQQSGPELVKPGASVKMSCKASGYTFTDYNMHWVKQSHGKSLQWIGYINPNNGGTNYNQNFKDKATLTVNKSSTTAYMELRSLTSEDSAVYYCARERDYDGSMDFWGQGTSVTVSS
VL: DIQMTQSPSSLSASLGGKVTITCKASQDINKFIAWYQHKPGKGPRLLIHYTSTLQPGIPSRFSGSGSGRDYSFSISNLEPEDIATYFCLQYDNLLWTFGGGTKLEIK
Consider B14, for which the Activity result was “Antagonistic” under setting [1] and “Antagonistic” under setting [2].

B15: KE58: anti-FGFR3 IIIb and IIIc antibody of WO 2022/040560 A1; SEQ ID NO: 78/79 (antibody, V domains shown)
VH: EVQLQQSGPDLVKPGASVKISCKASGYTVTDYYMNWVKQSHGKSLEWIGDINPNNGVTTYNQKFKDKATLTVDKSSSTAYMELRSLTSEDSAVYYCAREEDFDGFDYWGQGTTLTVSS
VL: DIVMTQSHKFMSTSVGDRVSITCKASQDVSTGVAWYQQKPGQSPQLLIYWASTRHTGVPDRFTGSGSGTDYILTIRSVQAEDLALYYCQQHYSTPLTFGAGTKLELK
As to B15, the Activity result runs as follows: under setting [1], “Antagonistic”; under setting [2], “Antagonistic”.
